Experimental data taken from US6613506B1, “Compositions and methods for inhibiting human immunodeficiency virus infection by down-regulating human cellular genes” (Subsidiary No. 3, Inc., priority 2000, dated 2003).

Legend:
[1] = system: latent HIV provirus in OM10.1 cells; experiment: Induction of latent HIV provirus by TNF-α in OM10.1 cells (CD4 retention, p24); format: cell-based, HIV-1
Experimental: In order to determine p24 expression in HIV-infected cells, the cells were first washed twice with Assay Buffer. About 10^6 cells were suspended in 100 μL Assay Buffer, mixed with 2 mL of Ortho PermeaFix Solution (available from Ortho Diagnostics), and incubated for 40 min. at room temperature. After centrifugation at 1200 rpm for 4 min. at 4EC, the cells were resuspended in 2 mL Wash Buffer (500 mL PBS, 25 mL fetal bovine serum, 1.5% bovine serum albumin and 0.0055% EDTA) for 10 min. at room temperature. After centrifugation, the cells were resuspended in 50 ΦL Wash Buffer and mixed with 1:500 dilution of an IgG2a antibody for 20 min. at 4EC, followed by incubation with 5-10 ΦL of anti-p24 antibody (KC57-FITC, available from Coulter) for 30 min. at 4EC. The cells were then washed twice with Wash Buffer and analyzed by flow cytometry.
(§1) One strategy selected for GSEs which suppressed productive infection of cells by HIV. The second strategy selected for GSEs which suppressed induction of the latent provirus in OM10.1 cells. When OM10.1 cells were treated with TNF-α and stained with an antibody specific for the cell surface molecule CD4, a rapid loss of CD4 expression was observed (FIG. 1). In contrast, the vast majority of the uninduced OM10.1 cells retained CD4 expression. It is believed that activation of the latent virus in OM10.1 cells by TNF-α leads to the production of viral protein gp120, which binds to cytoplasmic CD4, thereby preventing its translocation to the cell surface. A diminution of CD4^+ OM10.1 cells also correlates with an increased production of viral protein p24 in the cells following TNF-α induction.
OM10.1 cells were cultured in RPMI 1640 glucose-free media prior to and during incubation with NADH dehydrogenase inhibitors and TNF-á induction. The inhibitors were added to the cells followed by TNF-á induction 1-2 hours later. The expression of CD4 by the cells was assessed by anti-CD4 antibody staining and flow cytometry after 24 hour incubation at 37° C.

HIV-1SF2 = experiment: Protection of GSE-transduced CEM-ss cells from HIV-1SF2 infection (intracellular p24); format: cell-based; conditions: HIV-1SF2 at TCID50 of 1000, versus vector (LNGFRM) control
Description: FIG. 2 illustrates the percentage of intracellular p24^+ CEM-ss cells containing the CF-315 sequence (SEQ ID NO:1) after infection with HIV-1SF2 at a TCID50 of 1000. CEM-ss cells (10^6) containing the C-315 construct or control vector DNA (denoted as LNGFRM) were harvested on the indicated days post infection, stained with FITC-conjugated anti-p24 monoclonal antibody and analyzed by flow cytometry. Mock infected cells, -⋄-; LNGFRM vector-infected cells, -[…]-; and C-315 infected cells, -Δ-.
FIG. 3 illustrates the percentage of intracellular p24^+ CEM-ss cells containing various GSEs: CF-004 (SEQ ID NO:7), CF-025 (SEQ ID NO:5), CF-113 (SEQ ID NO:8) and CF-204 (SEQ ID NO:9) after infection with HIV-1SF2 at a TCID50 of 1000. Controls include mock-infected, vector (LNGFRM)-infected and HIV-infected CEM-ss cells.
FIG. 4 illustrates the percentage of intracellular p24^+ CEM-ss cells containing CF-001 (SEQ ID NO:10) after infection with HIV-1SF2 at a TCID50 of 1000. Controls include mock-infected and vector (LNGFRM)-infected cells. […]
In order to determine p24 expression in HIV-infected cells, the cells were first washed twice with Assay Buffer. […] The cells were then washed twice with Wash Buffer and analyzed by flow cytometry. […]

HIV = experiment: Selection of GSEs from RFE libraries using OM10.1 and CEM-ss cells (strategy not stated per GSE); format: cell-based, HIV-1; conditions: GSEs matching NADH dehydrogenase subunit genes
Experimental: (§2) The libraries prepared from HL-60 cells according to the method of Section A of this Example, were transfected into the packaging cell line, PA317 (ATCC CRL #9078), and converted into retrovirus for infection of OM10.1 cells. Libraries in pLNCX vector were co-cultured and selected with G418. Libraries in pLNGFRM vector were transduced by spinoculation (centrifugation of target cells at 1200×g for 90 min. in the presence of filtered retroviral supernatant; Dunn et al., 1999, Gene Therapy 6: 133-137) and selected by FACS sorting of the NGFR^+ population. After selection, the OM10.1 cells harboring the entire RFE library were induced with 10 U/mL of TNF-α at 37EC, and 24 hours later, were stained with an antibody and sorted for CD4 expression. Genomic DNA from the CD4^+ cells was purified and used for PCR amplification of inserts with the vector-derived primers. The amplified mixture was digested with EcoRI and BamHI and cloned back into the retroviral vector. The selection was repeated for additional rounds.
Additionally, a normalized RFE library made from HeLa cells was transferred into CEM-ss cells and the neo resistant population was infected with TCID50 of 3000/10^6 cells of HIV-1IIIB. This RFE library was represented by 50×10^6 independent recombinant clones. Four and seven days after infection, a purified anti-CD4 monoclonal antibody, L77 (available from Becton Dickinson), was added at 5 Φg/mL to prevent syncytia formation. Syncytia formation is thought to be prevented by blocking the interaction between gp120 expressed on the surface of an infected cell and CD4 on the surface of an uninfected cell. […] At 10-12 days after infection, CD4^+, p24^− cell population representing uninfected cells were sorted. Genomic DNA from the CD4^+, p24^− cells was purified and used for PCR amplification of inserts with the vector-derived primers. The amplified mixture was digested with EcoRI and BamHI and cloned back into the retroviral vector. The selection was repeated for additional rounds.
as §1
GSEs derived from cDNAs representing expressed human cellular genes were identified and isolated from a RFE library made from HL-60 cells using HIV provirus activation in OM10.1 cells as a read-out. Following transfection of the entire library into a packaging cell line, retrovirus carrying the library was used to infect OM10.1 cells by co-cultivation or spinoculation, and NGFR selection was performed to ensure the retention of the viral vector. When the infected cells were treated with TNF-α a small number of residual CD4^+ cells were detected by an anti-CD4 antibody and sorted by FACS. The GSEs contained in these cells were recovered by PCR amplification and their nucleotide sequences determined.
A total of twenty GSEs were isolated by the two aforementioned selection strategies using OM10.1 and CEM-ss cells. […] CF-315 was further shown to protect uninfected human T cells from a productive HIV-1 infection (FIG. 2). In this experiment, the retroviral vector, pLNGFRM, containing the CF-315 nucleic acid molecule was transferred into CEM-ss cells followed by NGFR selection. Vector containing plasmid DNA (denoted LNGFRM) was used as negative control. […]

[2] = system: latent HIV-1 provirus in OM10.1 cells; experiment: Selection of GSEs in OM10.1 cells (TNF-α induction of latent provirus, CD4+ sorting); format: cell-based
Experimental: as §2, with “The amplified mixture was digested with EcoRI and BamHI and cloned back into the retroviral vector. The selection was repeated for additional rounds.” left out
GSEs derived from cDNAs representing expressed human cellular genes were identified and isolated from a RFE library made from HL-60 cells using HIV provirus activation in OM10.1 cells as a read-out. […] When the infected cells were treated with TNF-α a small number of residual CD4^+ cells were detected by an anti-CD4 antibody and sorted by FACS. The GSEs contained in these cells were recovered by PCR amplification and their nucleotide sequences determined.

| Molecule | HIV-suppressive activity of the GSE and active orientation (HIV) | also measured |
| --- | --- | --- |
| CCC1(CCC(C)C)C(=O)NC(=O)NC1=O [amytal, Amytal] |  | inhibition of induction of latent HIV provirus (retention of CD4 expression) ([1]; TNF-α-induced OM10.1 cells, 24 hour incubation, FIG. 5 / FIG. 6): inhibited the induction of latent HIV provirus in OM10.1 cells in a dose-dependent manner; intracellular p24 levels ([1]; treated cells compared with untreated controls): suppressed intracellular p24 levels |
| CF-315: GSE, SEQ ID NO:1, antisense; NADH dehydrogenase ND6 subunit gene (nucleic acid, listed as Homo sapiens) antisense: AGATCCTATTGGTGCGTGGGCTTTGTATGATTATGGGCGTAGATTAGTAGTAGTTACTGGTTGAACATTGTTTGTTGGTGTATATATTGTAATTGGGATTGCTCGGGGGAATAGGTTATGTGATTAGGAGTAGGG | suppresses HIV replication as an antisense molecule | inhibition of productive HIV infection (intracellular p24+ cells) (HIV-1SF2): inhibited infection of human T cells by HIV-1SF2 |
| CF-025: GSE, SEQ ID NO:5, antisense; NADH dehydrogenase ND2 subunit gene (nucleic acid, listed as Homo sapiens) antisense: GAAGAAGCAGGCCGGATGTCAGAGGGGTGCCTTGGGTAACCTCTGGGACTCAGAAGTGAAAGGGGGCTATTCCTAGTTTTATTGCTATAGCCATTATGATTATTAATGATGAGTAT | suppresses HIV infection as an antisense molecule |  |
| CF-117: GSE, SEQ ID NO:4, antisense; NADH dehydrogenase ND6 subunit gene (nucleic acid, listed as Homo sapiens) antisense: GTGAAAGAGTATGATGGGGTGGTGGTTGTCGTAAACTTTAATAGTGTAGGAAGCTGAATAATTTATAAAGGAGAGGGGACAGGGTTGATTCGGGAGGATC | suppresses HIV activities as an antisense molecule |  |
| CF-101: GSE, SEQ ID NO:3, sense; NADH dehydrogenase ND2 subunit gene (nucleic acid, listed as Homo sapiens) sense: CATCAGCCCTTCTTAACATCTACTTCTACCTACGCCTAATCTACTCCACCTCAATCACACTACTCCCCATATCTAACAACGTAAAAATAAAATGACAGTTTGAGCATACAAAACCCACCCCATTCCTCCCCACACTCATCGCC | exhibits its HIV-suppressive activities in the sense orientation |  |
| CF-128: GSE, SEQ ID NO:6, sense; NADH dehydrogenase ND4 subunit gene (nucleic acid, listed as Homo sapiens) sense: TCCTAGTCCTCACAATCATGGCAAGCCAGCGCCACTTATCCAGTGAACCACTATCACGAAAAAAACTCTACCTCTCTATACTAATCTCCCTACAAATCTCATTAATTATAATATTCACAACCACAGA | suppresses HIV infection in the sense orientation |  |
| CF-319: GSE, SEQ ID NO:2, sense; NADH dehydrogenase ND6 subunit gene (nucleic acid, listed as Homo sapiens) sense: GATCCTCCCGAATCAACCCTGACCCCTCTCCTTCATAAATTATTCAGCTTCCTACACTATTAAAGTTTACCACAACCACCACGCCATCATACTCCTTCAC | suppresses HIV replication in the sense orientation |  |
| CF-061: GSE, SEQ ID NO:19; portion of an unknown human cellular gene (nucleic acid, listed as Homo sapiens) DNA: ACACACAGACACACAGACACAGAGAGACACACAGACACACACACAGAGATACACAGAGACACAGACACAGAAACACTCTGAGAGACACACACACAGAGACACACAGACACACAGACACAGAGAGACACACAGACACACACACACAGAGATACACAGAGACACAGACACAGAAA |  | selection of the GSE [2]: selected in OM10.1 cells |
